In test [1] the target is T1, 生物素标记人PD1-Fc蛋白 (human, UniProt Q15116 25-167, limits assumed, biotin-labelled (site not stated)).
T1 construct: also called PD1Fc biotin; 人PD1抗原; not shown: Fc part
The test can be described thus: capture ELISA: antibody captured by anti-mouse IgG Fc, 60 nM biotinylated human PD1-Fc. For orientation: An ELISA detects its analyte on a solid surface through an enzyme-linked reagent.

Test [2] deals with T2, 重组人PD1带his标签的蛋白 (Sino biological inc., cat#10377-H08H) (human, UniProt Q15116 25-167).
T2 construct: Detection antigen for serum titres and hybridoma screening; also called 人PD1-his蛋白抗原; PD1-his; not shown: his tag
T2 sequence (Q15116 25-167 limits assumed): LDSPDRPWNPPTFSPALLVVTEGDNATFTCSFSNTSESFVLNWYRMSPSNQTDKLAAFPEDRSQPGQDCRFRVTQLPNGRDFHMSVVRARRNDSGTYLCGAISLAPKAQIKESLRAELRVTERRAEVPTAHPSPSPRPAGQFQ
The test can be described thus: ELISA, hybridoma supernatant on coated human PD1-his.

T1 sequence (Q15116 25-167 limits assumed): as above

B1: D2G3 抗人PD1小鼠单克隆抗体 (antibody, V domains shown)
VH: QEQLKQSGPGLVAPSQTLSITCTVSGFSLESYGVDWVRQSPGKGLEWLGVIWGSGSTSYNSGLKSRLSISKDNSKKQVFLEMKSLQTDDTAMYYCAIDGGFASWGQGTLVTVSA
VL: DIVMTQAAPSVPVTPGESVSISCRSSKSLLHSNGNTYLYWFLQRPGQSPQRLIYYMSNLASGVPDRFSGRGSGTDFTLRISRVEAEDVGVYYCMQSLEYPYTFGGGTKLEIK
notes: Tested as a mouse monoclonal antibody from a hybridoma (supernatant or small-scale purified); also called D2G3抗体; 本发明的抗人PD1单克隆抗体
For B1, the binding result in test [1] and in test [2] was “binds” in each case.

Source of the values: CN108948202A (BOAOXIN BIOTECHNOLOGY NANJING CO LTD, dated 2018).
